From US20240392004A1 (IMMUNOWAKE, published 2024)
Changes are numbered by the printed parent chain. Numbers in names are those of the source.

T1: mouse PD-1 (mouse, UniProt Q02242 25-167, limits assumed)
T1 construct: also called mPD-1
T1 sequence (looked up): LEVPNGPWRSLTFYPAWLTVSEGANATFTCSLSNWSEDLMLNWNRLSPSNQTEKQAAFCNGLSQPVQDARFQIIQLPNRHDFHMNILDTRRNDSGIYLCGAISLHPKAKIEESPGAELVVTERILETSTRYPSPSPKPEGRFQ

B1: IL-12(E59A/F60A)/PD-L1(I54Q/Y56F/E58M/R113T/M115L/S117A/G119K)-Fc (IL-12 at hinge) (Fc fusion)
chain 1: FTVTVPKDLYVVEYGSNMTIECKFPVEKQLDLAALQVFWMMEDKNIIQFVHGEEDLKVQHSSYRQRARLLKDQLSLGNAALQITDVKLQDAGVYTCLIAYKGADYKRITVKVNAPYNKINQRILVVDPVTSEHELTCQAEGYPKAEVIWTSSDHQVLSGKTTTTNSKREEKLFNVTSTLRINTTTNEIFYCTFRRLDPEENHTAELVIPELPLAHPPNERGSGDKTHTCPPCPAPEKKGGPSVFLFPPKPKDTLMISRTPEVTCVVVDVSHEDPEVKFNWYVDGVEVHNAKTKPREEQYNSTYRVVSVLTVLHQDWLNGKEYKCKVSNKALPAPIEKTISKAKGQPREPQVYVLPPSREEMTKNQVSLLCLVKGFYPSDIAVEWESNGQPENRYMTWPPVLDSDGSFFLYSKLTVDKSRWQQGNVFSCSVMHEALHNHYTQKSLSLSPGK
chain 2: FTVTVPKDLYVVEYGSNMTIECKFPVEKQLDLAALQVFWMMEDKNIIQFVHGEEDLKVQHSSYRQRARLLKDQLSLGNAALQITDVKLQDAGVYTCLIAYKGADYKRITVKVNAPYNKINQRILVVDPVTSEHELTCQAEGYPKAEVIWTSSDHQVLSGKTTTTNSKREEKLFNVTSTLRINTTTNEIFYCTFRRLDPEENHTAELVIPELPLAHPPNERGSGIWELKKDVYVVELDWYPDAPGEMVVLTCDTPEEDGITWTLDQSSEVLGSGKTLTIQVKAAGDAGQYTCHKGGEVLSHSLLLLHKKEDGIWSTDILKDQKEPKNKTFLRCEAKNYSGRFTCWWLTTISTDLTFSVKSSRGSSDPQGVTCGAATLSAERVRGDNKEYEYSVECQEDSACPAAEESLPIEVMVDAVHKLKYENYTSSFFIRDIIKPDPPKNLQLKPLKNSRQVEVSWEYPDTWSTPHSYFSLTFCVQVQGKSKREKKDRVFTDKTSATVICRKNASISVRAQDRYYSSSWSEWASVPCSGGGGSGGGGSGGGGSGGGGSGRNLPVATPDPGMFPCLHHSQNLLRAVSNMLQKARQTLEFYPCTSEEIDHEDITKDKTSTVEACLPLELTKNESCLNSRETSFITNGSCLASRKTSFMMALCLSSIYEDLKMYQVEFKTMNAKLLMDPKRQIFLDQNMLAVIDELMQALNFNSETVPQKSSLEEPDFYKTKIKLCILLHAFRIRAVTIDRVMSYLNASDKTHTCPPCPAPEDEGGPSVFLFPPKPKDTLMISRTPEVTCVVVDVSHEDPEVKFNWYVDGVEVHNAKTKPREEQYNSTYRVVSVLTVLHQDWLNGKEYKCKVSNKALPAPIEKTISKAKGQPREPQVYVYPPSREEMTKNQVSLTCLVKGFYPSDIAVEWESNGQPENNYKTTPPVLDEDGSFALVSKLTVDKSRWQQGNVFSCSVMHEALHNHYTQKSLSLSPGK
B2: IL-12(F60A)/PD-L1(I54Q/Y56F/E58M/R113T/M115L/S117A/G119K)-Fc (IL-12 at hinge) (Fc fusion)
chain 1: B1 chain 1
chain 2: B1 chain 2 with A282E
B3: IL-12(E59A/F60A)/anti-PD-1(D100N) (antibody)
light: not shown
heavy: QVQLVESGGGVVQPGRSLRLDCKASGITFSNSGMHWVRQAPGKGLEWVAVIWYDGSKRYYADSVKGRFTISRDNSKNTLFLQMNSLRAEDTAVYYCATNNDYWGQGTLVTVSSASTKGPSVFPLAPSSKSTSGGTAALGCLVKDYFPEPVTVSWNSGALTSGVHTFPAVLQSSGLYSLSSVVTVPSSSLGTQTYICNVNHKPSNTKVDKKVEPKSCDKPGSGIWELKKDVYVVELDWYPDAPGEMVVLTCDTPEEDGITWTLDQSSEVLGSGKTLTIQVKAAGDAGQYTCHKGGEVLSHSLLLLHKKEDGIWSTDILKDQKEPKNKTFLRCEAKNYSGRFTCWWLTTISTDLTFSVKSSRGSSDPQGVTCGAATLSAERVRGDNKEYEYSVECQEDSACPAAEESLPIEVMVDAVHKLKYENYTSSFFIRDIIKPDPPKNLQLKPLKNSRQVEVSWEYPDTWSTPHSYFSLTFCVQVQGKSKREKKDRVFTDKTSATVICRKNASISVRAQDRYYSSSWSEWASVPCSGGGGSGGGGSGGGGSGGGGSGRNLPVATPDPGMFPCLHHSQNLLRAVSNMLQKARQTLEFYPCTSEEIDHEDITKDKTSTVEACLPLELTKNESCLNSRETSFITNGSCLASRKTSFMMALCLSSIYEDLKMYQVEFKTMNAKLLMDPKRQIFLDQNMLAVIDELMQALNFNSETVPQKSSLEEPDFYKTKIKLCILLHAFRIRAVTIDRVMSYLNASDKTHTCPPCPAPEDEGGPSVFLFPPKPKDTLMISRTPEVTCVVVDVSHEDPEVKFNWYVDGVEVHNAKTKPREEQYNSTYRVVSVLTVLHQDWLNGKEYKCKVSNKALPAPIEKTISKAKGQPREPQVYVYPPSREEMTKNQVSLTCLVKGFYPSDIAVEWESNGQPENNYKTTPPVLDEDGSFALVSKLTVDKSRWQQGNVFSCSVMHEALHNHYTQKSLSLSPGK
heavy (part 1 of 2): QVQLVESGGGVVQPGRSLRLDCKASGITFSNSGMHWVRQAPGKGLEWVAVIWYDGSKRYYADSVKGRFTISRDNSKNTLFLQMNSLRAEDTAVYYCATNNDYWGQGTLVTVSSAS
heavy (part 2 of 2): EPKSCDKTHTCPPCPAPEKKGGPSVFLFPPKPKDTLMISRTPEVTCVVVDVSHEDPEVKFNWYVDGVEVHNAKTKPREEQYNSTYRVVSVLTVLHQDWLNGKEYKCKVSNKALPAPIEKTISKAKGQPREPQVYVLPPSREEMTKNQVSLLCLVKGFYPSDIAVEWESNGQPENRYMTWPPVLDSDGSFFLYSKLTVDKSRWQQGNVFSCSVMHEALHNHYTQKSLSLSPGK
B4: IL-12(E59A/F60A)/anti-PD-1(D100G) (antibody)
light: not shown
heavy: B3 heavy with N100G
heavy (part 1 of 2): B3 heavy (part 1 of 2) with N100G
heavy (part 2 of 2): B3 heavy (part 2 of 2)
B5: IL-12(E59A/F60A)/anti-PD-1(N99G) (antibody)
light: not shown
heavy: not shown
heavy (part 1 of 2): B3 heavy (part 1 of 2) with N99G, N100D
heavy (part 2 of 2): B3 heavy (part 2 of 2)
B6: IL-12(E59A/F60A)/anti-PD-1(D100R) (antibody)
light: not shown
heavy: B3 heavy with N100R
heavy (part 1 of 2): B3 heavy (part 1 of 2) with N100R
heavy (part 2 of 2): B3 heavy (part 2 of 2)
B7: PD-L2(mut1)-Fc, T56V (Fc fusion)
chain 1: LFTVTVPKELYIIEHGSNVTLECNFDTGSHVNLGAIVASLQKVENDTSPHRERATLLEEQLPLGKASFHIPQVQVRDEGQYQCIIIYGVAWDYKYLTLKVKASYRKINTHILKVPETDEVELTCQATGYPLAEVSWPNVSVPANTSHSRTPEGLYQVTSVLRLKPPPGRNFSCVFWNTHVRELTLASIDLQSQMEPRTHPTDKTHTCPPCPAPEDEGGPSVFLFPPKPKDTLMISRTPEVTCVVVDVSHEDPEVKFNWYVDGVEVHNAKTKPREEQYNSTYRVVSVLTVLHQDWLNGKEYKCKVSNKALPAPIEKTISKAKGQPREPQVYVYPPSREEMTKNQVSLTCLVKGFYPSDIAVEWESNGQPENNYKTTPPVLDEDGSFALVSKLTVDKSRWQQGNVFSCSVMHEALHNHYTQKSLSLSPGK
chain 2: B7 chain 1 with D215K, E216K, Y332L, T347L, N371R, K373M, T375W, E381S, A386F, V388Y
B8: PD-L2(mut3)-Fc, Q60L (Fc fusion)
chain 1: B7 chain 1 with V37T, Q41L
chain 2: LFTVTVPKELYIIEHGSNVTLECNFDTGSHVNLGAITASLLKVENDTSPHRERATLLEEQLPLGKASFHIPQVQVRDEGQYQCIIIYGVAWDYKYLTLKVKASYRKINTHILKVPETDEVELTCQATGYPLAEVSWPNVSVPANTSHSRTPEGLYQVTSVLRLKPPPGRNFSCVFWNTHVRELTLASIDLQSQMEPRTHPTDKTHTCPPCPAPEKKGGPSVFLFPPKPKDTLMISRTPEVTCVVVDVSHEDPEVKFNWYVDGVEVHNAKTKPREEQYNSTYRVVSVLTVLHQDWLNGKEYKCKVSNKALPAPIEKTISKAKGQPREPQVYVLPPSREEMTKNQVSLLCLVKGFYPSDIAVEWESNGQPENRYMTWPPVLDSDGSFFLYSKLTVDKSRWQQGNVFSCSVMHEALHNHYTQKSLSLSPGK
B9: anti-PD-1 antibody HC-CDR3(D100G) (antibody, V domains shown)
VH: QVQLVESGGGVVQPGRSLRLDCKASGITFSNSGMHWVRQAPGKGLEWVAVIWYDGSKRYYADSVKGRFTISRDNSKNTLFLQMNSLRAEDTAVYYCATNGDYWGQGTLVTVSS
VL: EIVLTQSPATLSLSPGERATLSCRASQSVSSYLAWYQQKPGQAPRLLIYDASNRATGIPARFSGSGSGTDFTLTISSLEPEDFAVYYCQQSSNWPRTFGQGTKVEIKR
notes: constant parts as m82
B10: anti-PD-1 antibody HC-CDR3(D100R) (antibody, V domains shown)
VH: B9 VH with G100R
VL: B9 VL
notes: constant parts as m82
B11: anti-PD-1 antibody HC-CDR3(N99G) (antibody, V domains shown)
VH: B9 VH with N99G, G100D
VL: B9 VL
notes: constant parts as m82
B12: anti-PD-1 antibody HC-CDR3(D100N) (antibody, V domains shown)
VH: B9 VH with G100N
VL: B9 VL
notes: constant parts as m82

biological target: T2, human PD-1 on cells (HEK-PD-1 reporter cells; activated PBMC) (human, UniProt Q15116 25-288); assay: cell-based or functional assay
T2 sequence (Q15116 25-288): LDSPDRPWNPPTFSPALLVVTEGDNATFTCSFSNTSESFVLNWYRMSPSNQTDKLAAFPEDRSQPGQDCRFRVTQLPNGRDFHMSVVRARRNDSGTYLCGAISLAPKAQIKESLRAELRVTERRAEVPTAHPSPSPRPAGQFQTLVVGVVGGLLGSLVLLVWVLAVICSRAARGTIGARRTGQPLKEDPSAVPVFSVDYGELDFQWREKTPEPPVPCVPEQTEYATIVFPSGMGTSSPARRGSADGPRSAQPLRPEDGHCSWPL

| Biological activity of IL-12, HEK-PD-1-IL-12 reporter assay, % of rIL-12 [%] | Binder |
| --- | --- |
| 126 | B1 |
| 234 | B2 |

biological target: T2, human PD-1 on cells (HEK-PD-1 reporter …); assay: cell-based or functional assay; remark: another data set of the same source

| IFN-γ release, activated PBMC [ng/mL] | IL-12 signal transduction, HEK-IL-12-PD-1 (high) [%] | IL-12 signal transduction, HEK-IL-12-PD-1 (low) [%] | Binder |
| --- | --- | --- | --- |
| 820 | 38 | 33 | B3 |
| 120 | 33 | 17 | B4 |
| 34 | 5 | < 0.2 | B5 |
| 69 | 10 | 3 | B6 |

biological target: human IL-12 receptor complex (IL-12Rβ1 and IL-12Rβ2) (human, UniProt P42701 24-662; Q99665 24-862); assay: cell-based or functional assay
Sequence (Q99665 24-862, chain 2 of 2, other chains not shown): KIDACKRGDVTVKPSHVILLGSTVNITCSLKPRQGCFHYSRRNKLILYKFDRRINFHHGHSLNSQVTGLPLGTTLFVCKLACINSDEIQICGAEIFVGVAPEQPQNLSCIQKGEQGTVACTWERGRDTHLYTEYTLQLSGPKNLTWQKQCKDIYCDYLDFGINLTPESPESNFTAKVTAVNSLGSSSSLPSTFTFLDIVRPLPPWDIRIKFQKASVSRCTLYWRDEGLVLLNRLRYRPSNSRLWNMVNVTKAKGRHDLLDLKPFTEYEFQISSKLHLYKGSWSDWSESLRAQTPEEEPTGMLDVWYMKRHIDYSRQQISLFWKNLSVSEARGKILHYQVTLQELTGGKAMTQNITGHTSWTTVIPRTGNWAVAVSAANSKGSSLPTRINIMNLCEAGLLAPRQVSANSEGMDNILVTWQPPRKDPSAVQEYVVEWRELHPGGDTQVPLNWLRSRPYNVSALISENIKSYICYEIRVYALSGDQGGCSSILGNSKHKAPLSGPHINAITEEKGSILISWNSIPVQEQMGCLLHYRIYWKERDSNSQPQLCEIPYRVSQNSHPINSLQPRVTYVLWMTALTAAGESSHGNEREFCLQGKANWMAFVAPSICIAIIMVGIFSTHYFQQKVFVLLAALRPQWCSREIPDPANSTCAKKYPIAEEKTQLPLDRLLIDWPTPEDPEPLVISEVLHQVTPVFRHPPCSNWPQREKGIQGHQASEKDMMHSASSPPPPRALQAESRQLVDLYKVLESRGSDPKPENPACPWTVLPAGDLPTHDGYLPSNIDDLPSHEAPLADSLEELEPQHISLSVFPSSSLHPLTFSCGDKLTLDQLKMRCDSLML

| IL-12 signal transduction, HEK IL-12 [%] | Binder |
| --- | --- |
| < 0.2 | B3 |
| < 0.2 | B4 |
| < 0.2 | B5 |
| < 0.2 | B6 |

biological target: T3, human PD-1 (human, UniProt Q15116 25-167, limits assumed); assay: PD-L2-Fc format, calibrated on PD-L2(wt)-Fc, method not stated
T3 construct: also called hPD-1
T3 sequence (Q15116 25-167 limits assumed): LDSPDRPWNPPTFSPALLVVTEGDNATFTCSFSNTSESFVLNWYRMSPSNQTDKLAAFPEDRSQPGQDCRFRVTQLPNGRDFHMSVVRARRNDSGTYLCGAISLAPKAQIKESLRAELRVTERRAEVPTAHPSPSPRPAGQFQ

| Kd [nM] | Binder |
| --- | --- |
| 520 | B7 |
| 490 | B8 |

biological target: T1, mouse PD-1; assay: as above

| Kd [nM] | Binder |
| --- | --- |
| 430 | B7 |
| 320 | B8 |

biological target: T3, human PD-1; assay: same value as Table 11 (measured on the antibody without IL-12)

| Kd [nM] | Binder |
| --- | --- |
| 25 | B3 |
| 130 | B4 |
| 2300 | B5 |
| 910 | B6 |

biological target: T3, human PD-1; assay: Biacore and cell-based assays, calibrated by wildtype nivolumab binding affinity

| Kd [nM] | Binder |
| --- | --- |
| 130 | B9 |
| 910 | B10 |
| 2300 | B11 |
| 25 | B12 |
